Among the data in patent US20220175814A1 are median PE-A (Calculated raw values of medians using x-axis channel(s): PE-A) and MFI values, retold here.

Assay [1] addresses PD-L1 on RENCA HER2 cells (mouse) (UniProt Q9EP73). The assay is described as follows: flow cytometry on RENCA HER2 cells, isotype control, 1 h.
The target in assay [2] is PD-L1 on A431 cells (UniProt Q9NZQ7). The assay can be described thus: flow cytometry on A431 cells, negative control.
In assay [3] the target is PD-L1 on RENCA HER2 cells (mouse) (UniProt Q9EP73). The assay can be described thus: flow cytometry, RENCA HER2 cells treated 24 h with 1 microgram/ml polyIC/PPHA, stained with PE anti-mouse PD-L1 10F.9G2, 1 h. (In general: Flow cytometry measures light scatter and fluorescence of single cells or particles in a stream.)
For assay [4] the target is unchanged. The assay can be described thus: flow cytometry, untreated RENCA HER2 cells stained with PE anti-mouse PD-L1 10F.9G2, 1 h.
Assay [5] concerns the target PD-L1 on A431 cells (UniProt Q9NZQ7). The assay is described as follows: flow cytometry, A431 cells treated 5 h with 0.125 µg/ml PEI-PEG-EGF/polyIC, stained 40 min on ice.
The target is the same in assay [6]. The assay is described as follows: flow cytometry, untreated control A431 cells, stained 40 min on ice.

Sequence of UniProt Q9NZQ7 (Q9NZQ7 19-290 limits assumed): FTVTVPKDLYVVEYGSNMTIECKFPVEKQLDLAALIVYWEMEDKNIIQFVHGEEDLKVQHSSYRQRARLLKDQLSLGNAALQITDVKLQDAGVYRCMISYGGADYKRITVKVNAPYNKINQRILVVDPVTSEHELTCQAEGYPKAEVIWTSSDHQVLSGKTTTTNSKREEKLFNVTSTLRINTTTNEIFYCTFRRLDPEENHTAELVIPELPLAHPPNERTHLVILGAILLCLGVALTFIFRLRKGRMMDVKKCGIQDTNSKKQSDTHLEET
Sequence of UniProt Q9EP73 (Q9EP73 19-290): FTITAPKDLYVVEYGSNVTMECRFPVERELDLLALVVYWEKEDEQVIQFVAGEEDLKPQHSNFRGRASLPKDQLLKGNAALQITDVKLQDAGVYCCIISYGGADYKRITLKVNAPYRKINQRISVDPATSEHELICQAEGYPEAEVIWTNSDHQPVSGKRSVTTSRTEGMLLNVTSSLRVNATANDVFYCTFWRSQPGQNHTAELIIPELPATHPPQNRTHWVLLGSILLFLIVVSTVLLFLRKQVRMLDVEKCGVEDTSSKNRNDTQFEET

For the substance “Isotype control (Example 6, RENCA HER2 staining) (antibody)”, the median PE-A (Calculated raw values of medians using x-axis channel(s): PE-A) in assay [1] is 3.19.
In the case of “Isotype control (Example 1, A431 staining) (antibody)”, the MFI in assay [2] is 13.
For the substance “phycoerythrin (PE)-conjugated anti-mouse PD-L1 antibody CD274 (PD-L1, B7-H1) [10F.9G2] Tonbo cat #50-1243-U025”, the figures for the median PE-A (Calculated raw values of medians using x-axis channel(s): PE-A) in assay [3] and in assay [4] were 322 and 163, respectively.
As to “PD-L1-PE labelled antibody (Biolegend, cat #393607)”, the figures for the MFI in assay [5] and in assay [6] were 751 and 431, respectively.
